The test system of one experiment is CXCR4. In words: Discrimination power from published data: CXCR4. The settings on record: ID 21; output Voltage; n 5; ns; ref Guyon 2013. The source says: The broad method was to obtain a measure of ligand potency from each study. […] If not explicitly provided, we estimated ligand potency as PX , which was defined by the concentration of ligand that produced X response. To do this, we drew a horizontal line at X on a provided dose-response graph and estimated the ligand concentration where the data intercepted the horizontal line. The disadvantage with this method is that ligand potency was estimated based on the single representative graph provided in the study.
Each study often contained or cited a study that contained estimates of KD or koff for the specific TCR/pMHC interactions used in the study. We only included studies where monomeric SPR binding data was available to avoid multimeric binding parameters (e.g. when using tetramers). However, when analysing discrimination by other non-TCR receptors, we included binding data from various methods (e.g. SPR, radio labelled ligands) provided they were monomeric measurements. The use of SPR is important for weak interactions, such as TCR/pMHC, but various methods are available for higher-affinity interactions.
The plot of potency over KD or k off was fit using linear regression on log-transformed axes. We reported the slope of the fit (i.e. the discrimination power, α), the goodness-of-fit measure ( R^2 ), and the p-value for the null hypothesis that the slope is zero (i.e. α=0 ). […]

Experiment [1] has as its system CD8+ T cell blasts expressing 1G4 TCR. In words: TCR downregulation (tetramer gMFI), plate-bound pMHC + ICAM1. The format is cell-based, human. From the text: (§1) Figure 4. The T cell discriminatory power is enhanced by ligation of the receptors CD2 or LFA-1. (A) Protocol for stimulation of CD8^+ T cell blasts with plate-bound recombinant ligands. (B, C) Example dose-response curve for 1G4 T cell blasts stimulated with (B) peptides presented on major histocompatibility complex (pMHC) alone or (C) in combination with CD58 or ICAM1. (D, E) Potency derived from dose-response curves over KD showing the power function fit (D) with pMHC alone or (E) in combination with CD58 or ICAM1. (F) Comparison of the fitted discrimination power (α) and (G) fitted sensitivity ( C ). Shown are geometric means with each dot representing an independent experiment (n = 4–5). (F) In grey the result of a statistical test vs. 1 is shown (p=0.09 for pMHC, p=0.002 for CD58 and ICAM1, p=0.0002 for U87/1G4). Figure 4—source data 1. CD69 dose-response data for Figure 4. […]
(§2) For stimulation, T cells were counted, washed once to remove excess IL2, and 75,000 cells in 180–200 μl complete RMPI were dispensed per well. […] Cells were stained for flow cytometry and analysed immediately, or fixed and stored for up to 1 day. […]
(§3) Tetramers were produced in-house using refolded monomeric, biotinylated pMHC, and streptavidin-PE (Biolegend) at a 1:4 molar ratio. […] Samples were analysed using a BD X-20 flow cytometer, and data analysis was performed using FlowJo v10 (BD Biosciences).

For experiment [2] the test system is unchanged. In words: TCR downregulation (tetramer gMFI), plate-bound pMHC + CD58. The format is cell-based, human.
Source text: as §1, §2, §3

This is an account of results in article PMC8219380, “The discriminatory power of the T cell receptor” (eLife, 2021).

B1: CXCR4: receptor tested with Baclofen and other GABA ligands (protein, UniProt P61073 1-352, looked up)
C-X-C chemokine receptor type …: MEGISIYTSDNYTEEMGSGDYDSMKEPCFREENANFNKIFLPTIYSIIFLTGIVGNGLVILVMGYQKKLRSMTDKYRLHLSVADLLFVITLPFWAVDAVANWYFGNFLCKAVHVIYTVNLYSSVLILAFISLDRYLAIVHATNSQRPRKLLAEKVVYVGVWIPALLLTIPDFIFANVSEADDRYICDRFYPNDLWVVVFQFQHIMVGLILPGIVILSCYCIIISKLSHSKGHQKRKALKTTVILILAFFACWLPYYIGISIDSFILLEIIKQGCEFENTVHKWISITEALAFFHCCLNPILYAFLGAKFKTSAQHALTSVSRGSSLKILSKGKRGGHSSVSTESESSSFHSS
With B1, the “Power (discrimination power)” value with CXCR4 is 0.5686.

B2: ICAM1: human ICAM1 ECD, a ligand of LFA-1 (protein, UniProt P05362 28-480, looked up)
extracellular domain: QTSVSPSKVILPRGGSVLVTCSTSCDQPKLLGIETPLPKKELLLPGNNRKVYELSNVQEDSQPMCYSNCPDGQSTAKTFLTVYWTPERVELAPLPSWQPVGKNLTLRCQVEGGAPRANLTVVLLRGEKELKREPAVGEPAEVTTTVLVRRDHHGANFSCRTELDLRPQGLELFENTSAPYQLQTFVLPATPPQLVSPRVLEVDTQGTVVCSLDGLFPVSEAQVHLALGDQRLNPTVTYGNDSFSAKASVSVTAEDEGTQRLTCAVILGNQSQETLQTVTIYSFPAPNVILTKPEVSEGTEVTVKCEAHPRAKVTLNGVPAQPLGPRAQLLLKATPEDNGRSFSCSATLEVAGQLIHKNQTRELRVLYGPRLDERDCPGNWTWPENSQQTPMCQAWGNPLPELKCLKDGTFPLPIGESVTVTRDLEGTYLCRARSTQGEVTRKVTVNVLSPRYE
modifications: extracellular domain
As for B2, in experiment [1], the TCR downregulation result was “increased TCR downregulation”.

B3: CD58: soluble extracellular domain of human CD58, the ligand to CD2 (protein, UniProt P19256 29-215, looked up)
extracellular domain: FSQQIYGVVYGNVTFHVPSNVPLKEVLWKKQKDKVAELENSEFRAFSSFKNRVYLDTVSGSLTIYNLTSSDEDEYEMESPNITDTMKFFLYVLESLPSPTLTCALTNGSIEVQCMIPEHYNSHRGLIMYSWDCPMEQCKRNSTSIYFKMENDLPQKIQCTLSNPLFNTTSSIILTTCIPSSGHSRHR
modifications: extracellular domain
notes: soluble extracellular domain of human CD58, the ligand to CD2
Turning to B3, the TCR downregulation entry in experiment [2] is “increased TCR downregulation”.
